Measured values from IntAct's records for PubMed 20462497.

B1: Interleukin-10 receptor subunit beta (Homo sapiens), Q08334 (parent)
chain: MAWSLGSWLGGCLLVSALGMVPPPENVRMNSVNFKNILQWESPAFAKGNLTFTAQYLSYRIFQDKCMNTTLTECDFSSLSKYGDHTLRVRAEFADEHSDWVNITFCPVDDTIIGPPGMQVEVLADSLHMRFLAPKIENEYETWTMKNVYNSWTYNVQYWKNGTDEKFQITPQYDFEVLRNLEPWTTYCVQVRGFLPDRNKAGEWSEPVCEQTTHDETVPSWMVAVILMASVFMVCLALLGCFALLWCVYKKTKYAFSPRNSLPQHLKEFLGHPHHNTLLFFSFPLSDENDVFDKLSVIAEDSESGKQNPGDSCSLGTPPGQGPQS
B2: Interleukin-10 receptor subunit beta (Homo sapiens), Q08334 (parent)
chain: B1 chain
partner: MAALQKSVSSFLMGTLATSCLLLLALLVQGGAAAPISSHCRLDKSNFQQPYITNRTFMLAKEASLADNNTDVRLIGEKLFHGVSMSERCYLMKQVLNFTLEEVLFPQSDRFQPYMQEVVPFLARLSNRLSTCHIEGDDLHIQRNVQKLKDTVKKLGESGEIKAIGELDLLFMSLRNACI

Variants of: B1
Settings: with il10_human IL10, P22301
Chain of il10_human IL10, P22301 (P22301 whole entry): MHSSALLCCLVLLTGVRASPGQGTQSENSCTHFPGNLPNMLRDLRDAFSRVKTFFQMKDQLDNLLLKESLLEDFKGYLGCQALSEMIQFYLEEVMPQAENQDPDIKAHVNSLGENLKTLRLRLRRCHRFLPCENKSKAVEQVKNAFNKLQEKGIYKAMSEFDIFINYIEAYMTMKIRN

effect of a mutation on the interaction | Variant
decreasing interaction | Y82A

Variants of: B2
Settings: with il22_human IL22, Q9GZX6

effect of a mutation on the interaction | Variant
decreasing interaction | Y82A
